The record followed here is US20050037339A1.

The term Kd denotes the concentration at which binding is half-saturated.

Where two headings read alike, the source gives them in different places.

Test [1] addresses ErbB2 on cells (SKBR3 high, SK-OV-3 moderate, MCF7 low expression) (human) (UniProt P04626). The test is described as follows: cell-based or functional assay.
Test [2] has the same target. The test is described as follows: 3.0×10^11 cfu on SKBR3 cells 2 h at 37 °C, stripping buffer wash titered on E. coli TG1.
The target is the same in test [3]. The test is described as follows: 5.0×10^11 phage on ErbB2 expressing SKBR3 cells at 37 °C, low pH glycine eluate titered on E. coli TG1.
Test [4] shares this target.
For test [5] the target is unchanged. The source holds these as a separate data set.
The target of test [6] is recombinant ErbB2 extracellular domain (UniProt P04626). The test is described as follows: SPR (BIAcore). (Surface plasmon resonance follows binding to a sensor surface in real time, without labels.)
Test [7] concerns the target ErbB2 on cells (SKBR3 high, SK-OV-3 moderate, MCF7 low expression) (human) (UniProt P04626). As to the kind of experiment: FACS on SKBR3 cells, anti-M13 and streptavidin-PE detection.

Chain of C6.5 scFv phagemid (P69168 19-424): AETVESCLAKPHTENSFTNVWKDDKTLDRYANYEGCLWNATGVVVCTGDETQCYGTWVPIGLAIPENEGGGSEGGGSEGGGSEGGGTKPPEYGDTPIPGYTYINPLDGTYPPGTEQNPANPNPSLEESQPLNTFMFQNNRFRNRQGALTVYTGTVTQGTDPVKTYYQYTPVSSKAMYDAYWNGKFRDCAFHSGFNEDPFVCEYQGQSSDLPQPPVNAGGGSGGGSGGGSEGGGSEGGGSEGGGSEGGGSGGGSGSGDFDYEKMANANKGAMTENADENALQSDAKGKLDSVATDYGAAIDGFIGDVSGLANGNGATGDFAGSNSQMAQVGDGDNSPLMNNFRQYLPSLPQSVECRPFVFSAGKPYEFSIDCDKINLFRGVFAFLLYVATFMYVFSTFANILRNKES
Chain of F5-phagemid (monovalent) (P69168 19-424): as above
Chain of C6ML3-9 scFv phagemid (P69168 19-424): as above
Chain of C6.5 diabody phagemid (P69168 19-424): as above
Chain of anti-botulinum scFv phagemid (clone 3D12) (P69168 19-424): as above
Chain of C6.5 scFv phage (fd) (P03661 19-424): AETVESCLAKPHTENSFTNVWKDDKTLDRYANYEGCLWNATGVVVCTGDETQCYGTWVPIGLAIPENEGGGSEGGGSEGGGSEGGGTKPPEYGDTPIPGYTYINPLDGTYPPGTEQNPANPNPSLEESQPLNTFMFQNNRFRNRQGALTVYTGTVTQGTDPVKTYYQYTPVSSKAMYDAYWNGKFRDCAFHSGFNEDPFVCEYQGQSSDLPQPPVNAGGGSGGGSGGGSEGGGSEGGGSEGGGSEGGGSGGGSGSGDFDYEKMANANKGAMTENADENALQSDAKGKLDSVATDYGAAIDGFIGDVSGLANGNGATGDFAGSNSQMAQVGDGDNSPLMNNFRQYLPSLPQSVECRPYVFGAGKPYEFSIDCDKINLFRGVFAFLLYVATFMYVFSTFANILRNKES
Chain of fd-F5 phage (multivalent) (P03661 19-424): as above

As for C6.5cys scFv conjugated to liposomes, in test [1], the Total uptake of scFv-conjugated liposomes by SKBR3 cells is 3.4 and the share of the liposome uptake that was internalized (SKBR3 cells) was 70%.
In test [1], “C6ML3-9 scFv phagemid (from UniProt P69168 19-424)” returned an Intracellular Phage Titer of 2.7e+07 cfu and an input titer below which phagemid could not be recovered from within SKBR3 cells (input phage titer) of 3e+06. In test [2], the Cell Surface Phage Titer, 1st Wash worked out at 2.5e+08 cfu; the Cell Surface Phage Titer, 2nd Wash was 1.4e+07 cfu; the Cell Surface Phage Titer, 3rd Wash was found to be 3.2e+06 cfu.
For the substance “C6.5 scFv phagemid (from UniProt P69168 19-424)”, in test [1], the Intracellular Phage Titer is 5.2e+06 cfu; the enrichment of C6.5 scFv phagemid over wild type fd phage in the cell lysate, with trypsinization is 209 fold; the enrichment of C6.5 scFv phagemid over wild type fd phage in the cell lysate, without trypsinization is 6.1 fold; the input titer below which phagemid could not be recovered from within SKBR3 cells (input phage titer) came out at 300000. Also, in test [2], the Cell Surface Phage Titer, 1st Wash was found to be 6e+07 cfu; the Cell Surface Phage Titer, 2nd Wash came to 9.6e+06 cfu; the Cell Surface Phage Titer, 3rd Wash worked out at 760000 cfu.
In test [1], “C6.5 diabody phagemid (from UniProt P69168 19-424)” showed an Intracellular Phage Titer of 4.5e+07 cfu; a Lysed cell fraction (titer of internalized phage) of 1.7e+07 phage titer; a cells with internalized phage (confocal microscopy, SKBR3 cells) of 20%; an input titer below which phage could not be recovered from within SKBR3 cells (input phage titer) of 30000. Moreover, in test [2], the Cell Surface Phage Titer, 1st Wash was 1.8e+08 cfu; the Cell Surface Phage Titer, 2nd Wash is 1.2e+07 cfu; the Cell Surface Phage Titer, 3rd Wash turned out to be 1.3e+06 cfu. In test [3], the titer of cell surface bound phage, 1st glycine wash was 1.8e+07 phage titer and the titer of cell surface bound phage, 2nd glycine wash came out at 2.8e+06 phage titer.
On to “anti-botulinum scFv phagemid (clone 3D12) (from UniProt P69168 19-424)”, for which, in test [4], the titer of cell surface bound phage, 1st glycine wash turned out to be 600000 phage titer and the titer of cell surface bound phage, 2nd glycine wash is 100000 phage titer. In test [5], this substance had a Cell Surface Phage Titer, 1st Wash of 2.8e+07 cfu; a Cell Surface Phage Titer, 2nd Wash of 3.6e+06 cfu; a Cell Surface Phage Titer, 3rd Wash of 280000 cfu. For the same substance, in test [1], the Intracellular Phage Titer was 1.5e+06 cfu and the Lysed cell fraction (titer of internalized phage) turned out to be 600000 phage titer.
Consider C6.5 phage (Example 2) (scFv), for which the Lysed cell fraction (titer of internalized phage) in test [1] stood at 6.8e+07 phage titer. Further, in test [3], the titer of cell surface bound phage, 1st glycine wash was found to be 1.2e+07 phage titer and the titer of cell surface bound phage, 2nd glycine wash stood at 5.2e+06 phage titer.
With native anti-ErbB2 F5 scFv, the equilibrium dissociation constant (Kd) in test [6] stood at 160 nM.
With “fd-F5 phage (multivalent) (from UniProt P03661 19-424) (scFv)”, in test [1], the % of GFP positive cells (SKBR3, 48 hours; 1.25 ng reporter plasmid DNA) stood at 0.57%; the % of GFP positive cells (SKBR3, 48 hours; 2.25 ng reporter plasmid DNA) is 0.87%; the % of GFP positive cells (SKBR3, 48 hours; 5 ng reporter plasmid DNA) turned out to be 1.69%. The lowest phage concentration at which binding could be detected in test [7] was 1e+08 cfu/ml.
On to “C6.5 scFv phage (fd) (from UniProt P03661 19-424)”, for which, in test [1], the Intracellular Phage Titer was found to be 2.2e+08 cfu and the input titer below which phage could not be recovered from within SKBR3 cells (input phage titer) was 30000. Moreover, in test [2], the Cell Surface Phage Titer, 1st Wash was determined as 2.3e+08 cfu; the Cell Surface Phage Titer, 2nd Wash is 6.2e+07 cfu; the Cell Surface Phage Titer, 3rd Wash turned out to be 5.6e+06 cfu.
In test [1], “F5-phagemid (monovalent) (from UniProt P69168 19-424) (scFv)” had a % of GFP positive cells (SKBR3, 48 hours; 0.78 µg reporter plasmid DNA) of 0.64%; a % of GFP positive cells (SKBR3, 48 hours; 3.1 µg reporter plasmid DNA) of 1.44%; a % of GFP positive cells (SKBR3, 48 hours; 15 µg reporter plasmid DNA) of 3.84%; a GFP expressing SKBR3 cells after 48 hrs (FACS) of 1.37%. For the same substance, in test [1], the GFP expressing SKBR3 cells in a co-culture of SKBR3 and MCF7 cells (FACS) worked out at 1.91%; the GFP positive SKBR3 cells at the minimal phage concentration amounted to 0.12%; the maximum percentage of GFP positive SKBR3 cells in the time course turned out to be 4.5%. The substance also came in with a lowest phage concentration at which binding could be detected in test [7] of 1e+10 cfu/ml.
